Numbered stars: 1 amine (or outer) side, 2 acyl side, 3 side chain; on linkers, the order of the positions; unused ones are H or OH. Square brackets hold non-standard residues; d marks the D form. Side chains are listed from the residue outwards. Ends that are not written are not given here. * marks the point of attachment. C20 diacid = O=C(O)CCCCCCCCCCCCCCCCCCC(=O)*; γGlu = O=C(O)[C@H](CCC(=O)[*:2])N[*:1]; AEEA = NCCOCCOCC(=O)O; Aib = CC(C)(N)C(=O)O
B1: Peptide 47 (peptide)
peptide: Y[Aib]EGTFTSDYSILLDKIAQ[Aib]AFIEYLIEGGPSSGAPPK([AEEA-AEEA-γGlu-C20 diacid])S-NH2
modifications: N-terminus assumed
SMILES: CC[C@H](C)[C@H](NC(=O)[C@H](CCCCN)NC(=O)[C@H](CC(=O)O)NC(=O)[C@H](CC(C)C)NC(=O)[C@H](CC(C)C)NC(=O)[C@@H](NC(=O)[C@H](CO)NC(=O)[C@H](Cc1ccc(O)cc1)NC(=O)[C@H](CC(=O)O)NC(=O)[C@H](CO)NC(=O)[C@@H](NC(=O)[C@H](Cc1ccccc1)NC(=O)[C@@H](NC(=O)CNC(=O)[C@H](CCC(=O)O)NC(=O)C(C)(C)NC(=O)[C@@H](N)Cc1ccc(O)cc1)[C@@H](C)O)[C@@H](C)O)[C@@H](C)CC)C(=O)N[C@@H](C)C(=O)N[C@@H](CCC(N)=O)C(=O)NC(C)(C)C(=O)N[C@@H](C)C(=O)N[C@@H](Cc1ccccc1)C(=O)N[C@H](C(=O)N[C@@H](CCC(=O)O)C(=O)N[C@@H](Cc1ccc(O)cc1)C(=O)N[C@@H](CC(C)C)C(=O)N[C@H](C(=O)N[C@@H](CCC(=O)O)C(=O)NCC(=O)NCC(=O)N1CCC[C@H]1C(=O)N[C@@H](CO)C(=O)N[C@@H](CO)C(=O)NCC(=O)N[C@@H](C)C(=O)N1CCC[C@H]1C(=O)N1CCC[C@H]1C(=O)N[C@@H](CCCCNC(=O)COCCOCCNC(=O)COCCOCCNC(=O)CC[C@H](NC(=O)CCCCCCCCCCCCCCCCCCC(=O)O)C(=O)O)C(=O)N[C@@H](CO)C(N)=O)[C@@H](C)CC)[C@@H](C)CC
B2: Peptide 34 (peptide)
peptide: Y[Aib]EGTFTSDYSILLDKIAQ[Aib]AFIK([AEEA-AEEA-γGlu-C20 diacid])YLIEGGPSSGAPPPS-NH2
modifications: N-terminus assumed
SMILES: CC[C@H](C)[C@H](NC(=O)[C@H](CCCCN)NC(=O)[C@H](CC(=O)O)NC(=O)[C@H](CC(C)C)NC(=O)[C@H](CC(C)C)NC(=O)[C@@H](NC(=O)[C@H](CO)NC(=O)[C@H](Cc1ccc(O)cc1)NC(=O)[C@H](CC(=O)O)NC(=O)[C@H](CO)NC(=O)[C@@H](NC(=O)[C@H](Cc1ccccc1)NC(=O)[C@@H](NC(=O)CNC(=O)[C@H](CCC(=O)O)NC(=O)C(C)(C)NC(=O)[C@@H](N)Cc1ccc(O)cc1)[C@@H](C)O)[C@@H](C)O)[C@@H](C)CC)C(=O)N[C@@H](C)C(=O)N[C@@H](CCC(N)=O)C(=O)NC(C)(C)C(=O)N[C@@H](C)C(=O)N[C@@H](Cc1ccccc1)C(=O)N[C@H](C(=O)N[C@@H](CCCCNC(=O)COCCOCCNC(=O)COCCOCCNC(=O)CC[C@H](NC(=O)CCCCCCCCCCCCCCCCCCC(=O)O)C(=O)O)C(=O)N[C@@H](Cc1ccc(O)cc1)C(=O)N[C@@H](CC(C)C)C(=O)N[C@H](C(=O)N[C@@H](CCC(=O)O)C(=O)NCC(=O)NCC(=O)N1CCC[C@H]1C(=O)N[C@@H](CO)C(=O)N[C@@H](CO)C(=O)NCC(=O)N[C@@H](C)C(=O)N1CCC[C@H]1C(=O)N1CCC[C@H]1C(=O)N1CCC[C@H]1C(=O)N[C@@H](CO)C(N)=O)[C@@H](C)CC)[C@@H](C)CC
B3: Peptide 46 (peptide)
peptide: Y[Aib]EGTFTSDYSILLDKIAQ[Aib]AFIEYLIEGGPSSGAPK([AEEA-AEEA-γGlu-C20 diacid])PS-NH2
modifications: N-terminus assumed
SMILES: CC[C@H](C)[C@H](NC(=O)[C@H](CCCCN)NC(=O)[C@H](CC(=O)O)NC(=O)[C@H](CC(C)C)NC(=O)[C@H](CC(C)C)NC(=O)[C@@H](NC(=O)[C@H](CO)NC(=O)[C@H](Cc1ccc(O)cc1)NC(=O)[C@H](CC(=O)O)NC(=O)[C@H](CO)NC(=O)[C@@H](NC(=O)[C@H](Cc1ccccc1)NC(=O)[C@@H](NC(=O)CNC(=O)[C@H](CCC(=O)O)NC(=O)C(C)(C)NC(=O)[C@@H](N)Cc1ccc(O)cc1)[C@@H](C)O)[C@@H](C)O)[C@@H](C)CC)C(=O)N[C@@H](C)C(=O)N[C@@H](CCC(N)=O)C(=O)NC(C)(C)C(=O)N[C@@H](C)C(=O)N[C@@H](Cc1ccccc1)C(=O)N[C@H](C(=O)N[C@@H](CCC(=O)O)C(=O)N[C@@H](Cc1ccc(O)cc1)C(=O)N[C@@H](CC(C)C)C(=O)N[C@H](C(=O)N[C@@H](CCC(=O)O)C(=O)NCC(=O)NCC(=O)N1CCC[C@H]1C(=O)N[C@@H](CO)C(=O)N[C@@H](CO)C(=O)NCC(=O)N[C@@H](C)C(=O)N1CCC[C@H]1C(=O)N[C@@H](CCCCNC(=O)COCCOCCNC(=O)COCCOCCNC(=O)CC[C@H](NC(=O)CCCCCCCCCCCCCCCCCCC(=O)O)C(=O)O)C(=O)N1CCC[C@H]1C(=O)N[C@@H](CO)C(N)=O)[C@@H](C)CC)[C@@H](C)CC
B4: Peptide 50 (peptide)
peptide: Y[Aib]EGTFTSDYSILLDKK([AEEA-AEEA-γGlu-C20 diacid])AQ[Aib]AFIEYLIEGGPSSG-NH2
modifications: N-terminus assumed
SMILES: CC[C@H](C)[C@H](NC(=O)[C@H](CC(C)C)NC(=O)[C@H](Cc1ccc(O)cc1)NC(=O)[C@H](CCC(=O)O)NC(=O)[C@@H](NC(=O)[C@H](Cc1ccccc1)NC(=O)[C@H](C)NC(=O)C(C)(C)NC(=O)[C@H](CCC(N)=O)NC(=O)[C@H](C)NC(=O)[C@H](CCCCNC(=O)COCCOCCNC(=O)COCCOCCNC(=O)CC[C@H](NC(=O)CCCCCCCCCCCCCCCCCCC(=O)O)C(=O)O)NC(=O)[C@H](CCCCN)NC(=O)[C@H](CC(=O)O)NC(=O)[C@H](CC(C)C)NC(=O)[C@H](CC(C)C)NC(=O)[C@@H](NC(=O)[C@H](CO)NC(=O)[C@H](Cc1ccc(O)cc1)NC(=O)[C@H](CC(=O)O)NC(=O)[C@H](CO)NC(=O)[C@@H](NC(=O)[C@H](Cc1ccccc1)NC(=O)[C@@H](NC(=O)CNC(=O)[C@H](CCC(=O)O)NC(=O)C(C)(C)NC(=O)[C@@H](N)Cc1ccc(O)cc1)[C@@H](C)O)[C@@H](C)O)[C@@H](C)CC)[C@@H](C)CC)C(=O)N[C@@H](CCC(=O)O)C(=O)NCC(=O)NCC(=O)N1CCC[C@H]1C(=O)N[C@@H](CO)C(=O)N[C@@H](CO)C(=O)NCC(N)=O
B5: Peptide 41 (peptide)
peptide: Y[Aib]EGTFTSDYSILLDKIAQ[Aib]AFIEYLIEGGPK([AEEA-AEEA-γGlu-C20 diacid])SGAPPPS-NH2
modifications: N-terminus assumed
SMILES: CC[C@H](C)[C@H](NC(=O)[C@H](CCCCN)NC(=O)[C@H](CC(=O)O)NC(=O)[C@H](CC(C)C)NC(=O)[C@H](CC(C)C)NC(=O)[C@@H](NC(=O)[C@H](CO)NC(=O)[C@H](Cc1ccc(O)cc1)NC(=O)[C@H](CC(=O)O)NC(=O)[C@H](CO)NC(=O)[C@@H](NC(=O)[C@H](Cc1ccccc1)NC(=O)[C@@H](NC(=O)CNC(=O)[C@H](CCC(=O)O)NC(=O)C(C)(C)NC(=O)[C@@H](N)Cc1ccc(O)cc1)[C@@H](C)O)[C@@H](C)O)[C@@H](C)CC)C(=O)N[C@@H](C)C(=O)N[C@@H](CCC(N)=O)C(=O)NC(C)(C)C(=O)N[C@@H](C)C(=O)N[C@@H](Cc1ccccc1)C(=O)N[C@H](C(=O)N[C@@H](CCC(=O)O)C(=O)N[C@@H](Cc1ccc(O)cc1)C(=O)N[C@@H](CC(C)C)C(=O)N[C@H](C(=O)N[C@@H](CCC(=O)O)C(=O)NCC(=O)NCC(=O)N1CCC[C@H]1C(=O)N[C@@H](CCCCNC(=O)COCCOCCNC(=O)COCCOCCNC(=O)CC[C@H](NC(=O)CCCCCCCCCCCCCCCCCCC(=O)O)C(=O)O)C(=O)N[C@@H](CO)C(=O)NCC(=O)N[C@@H](C)C(=O)N1CCC[C@H]1C(=O)N1CCC[C@H]1C(=O)N1CCC[C@H]1C(=O)N[C@@H](CO)C(N)=O)[C@@H](C)CC)[C@@H](C)CC
B6: Peptide 37 (peptide)
peptide: Y[Aib]EGTFTSDYSILLDKIAQ[Aib]AFIEYLIK([AEEA-AEEA-γGlu-C20 diacid])GGPSSGAPPPS-NH2
modifications: N-terminus assumed
SMILES: CC[C@H](C)[C@H](NC(=O)[C@H](CCCCN)NC(=O)[C@H](CC(=O)O)NC(=O)[C@H](CC(C)C)NC(=O)[C@H](CC(C)C)NC(=O)[C@@H](NC(=O)[C@H](CO)NC(=O)[C@H](Cc1ccc(O)cc1)NC(=O)[C@H](CC(=O)O)NC(=O)[C@H](CO)NC(=O)[C@@H](NC(=O)[C@H](Cc1ccccc1)NC(=O)[C@@H](NC(=O)CNC(=O)[C@H](CCC(=O)O)NC(=O)C(C)(C)NC(=O)[C@@H](N)Cc1ccc(O)cc1)[C@@H](C)O)[C@@H](C)O)[C@@H](C)CC)C(=O)N[C@@H](C)C(=O)N[C@@H](CCC(N)=O)C(=O)NC(C)(C)C(=O)N[C@@H](C)C(=O)N[C@@H](Cc1ccccc1)C(=O)N[C@H](C(=O)N[C@@H](CCC(=O)O)C(=O)N[C@@H](Cc1ccc(O)cc1)C(=O)N[C@@H](CC(C)C)C(=O)N[C@H](C(=O)N[C@@H](CCCCNC(=O)COCCOCCNC(=O)COCCOCCNC(=O)CC[C@H](NC(=O)CCCCCCCCCCCCCCCCCCC(=O)O)C(=O)O)C(=O)NCC(=O)NCC(=O)N1CCC[C@H]1C(=O)N[C@@H](CO)C(=O)N[C@@H](CO)C(=O)NCC(=O)N[C@@H](C)C(=O)N1CCC[C@H]1C(=O)N1CCC[C@H]1C(=O)N1CCC[C@H]1C(=O)N[C@@H](CO)C(N)=O)[C@@H](C)CC)[C@@H](C)CC
B7: Peptide 48 (peptide)
peptide: Y[Aib]EGTFTSDYSILLDKIAQ[Aib]AFIEYLIEGGPSSGAPPPK([AEEA-AEEA-γGlu-C20 diacid])-NH2
modifications: N-terminus assumed
SMILES: CC[C@H](C)[C@H](NC(=O)[C@H](CCCCN)NC(=O)[C@H](CC(=O)O)NC(=O)[C@H](CC(C)C)NC(=O)[C@H](CC(C)C)NC(=O)[C@@H](NC(=O)[C@H](CO)NC(=O)[C@H](Cc1ccc(O)cc1)NC(=O)[C@H](CC(=O)O)NC(=O)[C@H](CO)NC(=O)[C@@H](NC(=O)[C@H](Cc1ccccc1)NC(=O)[C@@H](NC(=O)CNC(=O)[C@H](CCC(=O)O)NC(=O)C(C)(C)NC(=O)[C@@H](N)Cc1ccc(O)cc1)[C@@H](C)O)[C@@H](C)O)[C@@H](C)CC)C(=O)N[C@@H](C)C(=O)N[C@@H](CCC(N)=O)C(=O)NC(C)(C)C(=O)N[C@@H](C)C(=O)N[C@@H](Cc1ccccc1)C(=O)N[C@H](C(=O)N[C@@H](CCC(=O)O)C(=O)N[C@@H](Cc1ccc(O)cc1)C(=O)N[C@@H](CC(C)C)C(=O)N[C@H](C(=O)N[C@@H](CCC(=O)O)C(=O)NCC(=O)NCC(=O)N1CCC[C@H]1C(=O)N[C@@H](CO)C(=O)N[C@@H](CO)C(=O)NCC(=O)N[C@@H](C)C(=O)N1CCC[C@H]1C(=O)N1CCC[C@H]1C(=O)N1CCC[C@H]1C(=O)N[C@@H](CCCCNC(=O)COCCOCCNC(=O)COCCOCCNC(=O)CC[C@H](NC(=O)CCCCCCCCCCCCCCCCCCC(=O)O)C(=O)O)C(N)=O)[C@@H](C)CC)[C@@H](C)CC

What follows are binders tested against human GLP-1 receptor (human, UniProt P43220 24-463) (assay: cell-based or functional assay).

Row | Binder | hGLPIR cAMP EC50 ratio
1 | B1 | 0.089
2 | B2 | 0.0392
3 | B3 | 0.0969
4 | B4 | 0.675
5 | B5 | 0.0637
6 | B6 | 0.0533
7 | B7 | 0.0966

Source: patent US20230293638A1 (Eli Lilly, published 2023)
